Measurements from PMC11776367, “Biochemical and Structural Characterisation of a Bacterial Lactoperoxidase” (Chembiochem, 2024).

Columns and labels:
Assay in all cases: purified protein
Settings in all cases: 0.5 mM H2O2, 50 mM KPi, 150 mM NaCl, pH 7.0, 25 °C
COc1ccccc1O = system: COc1ccccc1O
I = system: I
purified protein [1] = substrate: COc1cccc(OC)c1O; assay type: biochemical, cyanobacterium TDX16
purified protein [2] = substrate: COc1ccccc1O; assay type: biochemical, cyanobacterium TDX16
purified protein [3] = substrate: I; assay type: biochemical, cyanobacterium TDX16

Molecule bovine LPO (Bos taurus) has a Km (COc1ccccc1O) of 22 mM, a kcat (COc1ccccc1O) of 10 s⁻¹ and a kcat/Km (COc1ccccc1O) of 500 M⁻¹ s⁻¹. The Km (I) was 14 mM, the kcat (I) was 206 s⁻¹ and the kcat/Km (I) was 15000 M⁻¹ s⁻¹.

B1: CyanoPOX (cyanobacterium TDX16) (protein)
chain: AQNRTIDGTDNNLSHNVWGSTNQHLDRAGPAAYADGMSMPAGGSRPSARAVSNGIAAQTGSMLNDRMLSDWVWQWGQFLDHDLDLTDAASPAESFPIPVPMGDPFFDPFNTGTQTIGLSRSAYDPATGSVDARQQMNQITSWIDASNVYGSDMTRANALRTMSGGRLATSAGDLLPFNTGGLPNAGGTSPSLFLAGDVRSNEQSGLAAVHTLFVREHNRLADQIAAANPGMGDEDIYQQARKIVGAQMQIITYNEFLPALLGSAAPSPMSIGYDDSINPNIMNEFANACYRVGHTMLSPTILRLDNAGNVIPHGNLALQDAFFNPNRIINEGGIAPILKGLASQAMQEIDNKIVDDVRNFLFGPPGSGGLDLASLNIQRGRDHGLPDYNSTRVMMGLTSVSSFADISSDPAVQAALMSLYGTVNDIDLWVGALAEDHLAGSSVGELIAAVLGEQFTRLRDGDRYWYERDDFFVNNPSLLAELQATRLSDIIRRNSDITNIQDNVFLIPEPATLGLLMFGAAFLRKRRS
notes: Predicted protein 556 residues; synthetic codon-optimised gene, His-tagged (calculated 58 kDa), E. coli NEB10beta, monomer
B1 gave a Km (purified protein [1]) of 35 mM, a kcat (purified protein [1]) of 620 s⁻¹ and a kcat/Km (purified protein [1]) of 18000 M⁻¹ s⁻¹. The Km (purified protein [2]) was 59 mM, the kcat (purified protein [2]) was 135 s⁻¹ and the kcat/Km (purified protein [2]) was 2000 M⁻¹ s⁻¹. For the same molecule, the Km (purified protein [3]) was 7 mM, the kcat (purified protein [3]) was 885 s⁻¹ and the kcat/Km (purified protein [3]) was 126000 M⁻¹ s⁻¹.
